Measured values published in patent US7387779B2, “Anti-angiogenic proteins and fragments and methods of use thereof” (Beth Israel Deaconess Medical Center, priority 1998, dated 2008).

What was measured:
αvβ3 integrin protein = molecular target: T1, αvβ3 integrin protein (Homo sapiens, UniProt P05106+P06756); test: Competition proliferation assay with soluble αvβ3 protein, WM-164 cells; format: cell-based; settings: αvβ3 protein at 2 μg/ml
T1 construct: purchased CHEMICON Int'l, Temecula, Calif., USA
T1 sequence (P06756 31-889 limits assumed): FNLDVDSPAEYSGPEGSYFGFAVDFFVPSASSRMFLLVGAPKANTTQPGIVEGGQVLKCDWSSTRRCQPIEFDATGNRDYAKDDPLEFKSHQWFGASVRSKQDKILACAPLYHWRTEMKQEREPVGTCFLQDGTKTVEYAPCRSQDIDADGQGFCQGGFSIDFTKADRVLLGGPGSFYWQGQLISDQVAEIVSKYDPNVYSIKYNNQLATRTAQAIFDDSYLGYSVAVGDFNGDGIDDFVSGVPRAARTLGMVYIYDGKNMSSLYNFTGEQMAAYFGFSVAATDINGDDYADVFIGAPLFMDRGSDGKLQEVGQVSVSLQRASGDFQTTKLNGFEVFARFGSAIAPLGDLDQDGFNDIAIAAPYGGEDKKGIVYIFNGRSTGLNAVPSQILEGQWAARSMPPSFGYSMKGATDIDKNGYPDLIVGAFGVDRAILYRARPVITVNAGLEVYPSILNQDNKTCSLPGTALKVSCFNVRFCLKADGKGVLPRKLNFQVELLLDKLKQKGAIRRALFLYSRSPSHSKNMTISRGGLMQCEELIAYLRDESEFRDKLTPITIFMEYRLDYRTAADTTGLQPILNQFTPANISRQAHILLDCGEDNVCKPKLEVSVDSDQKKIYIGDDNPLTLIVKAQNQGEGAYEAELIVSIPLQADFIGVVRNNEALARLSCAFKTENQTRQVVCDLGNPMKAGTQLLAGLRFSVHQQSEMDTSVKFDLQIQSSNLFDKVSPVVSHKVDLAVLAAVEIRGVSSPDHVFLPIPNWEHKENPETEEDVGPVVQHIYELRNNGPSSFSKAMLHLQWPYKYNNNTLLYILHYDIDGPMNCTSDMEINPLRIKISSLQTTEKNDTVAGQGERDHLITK
T1 sequence (P06756 891-1048 partner limits assumed): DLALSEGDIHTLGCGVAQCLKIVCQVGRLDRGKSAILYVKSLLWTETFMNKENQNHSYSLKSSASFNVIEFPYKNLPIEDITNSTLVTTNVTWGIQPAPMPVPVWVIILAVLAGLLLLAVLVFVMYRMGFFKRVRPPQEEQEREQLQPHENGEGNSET
T1 sequence (P05106 27-788): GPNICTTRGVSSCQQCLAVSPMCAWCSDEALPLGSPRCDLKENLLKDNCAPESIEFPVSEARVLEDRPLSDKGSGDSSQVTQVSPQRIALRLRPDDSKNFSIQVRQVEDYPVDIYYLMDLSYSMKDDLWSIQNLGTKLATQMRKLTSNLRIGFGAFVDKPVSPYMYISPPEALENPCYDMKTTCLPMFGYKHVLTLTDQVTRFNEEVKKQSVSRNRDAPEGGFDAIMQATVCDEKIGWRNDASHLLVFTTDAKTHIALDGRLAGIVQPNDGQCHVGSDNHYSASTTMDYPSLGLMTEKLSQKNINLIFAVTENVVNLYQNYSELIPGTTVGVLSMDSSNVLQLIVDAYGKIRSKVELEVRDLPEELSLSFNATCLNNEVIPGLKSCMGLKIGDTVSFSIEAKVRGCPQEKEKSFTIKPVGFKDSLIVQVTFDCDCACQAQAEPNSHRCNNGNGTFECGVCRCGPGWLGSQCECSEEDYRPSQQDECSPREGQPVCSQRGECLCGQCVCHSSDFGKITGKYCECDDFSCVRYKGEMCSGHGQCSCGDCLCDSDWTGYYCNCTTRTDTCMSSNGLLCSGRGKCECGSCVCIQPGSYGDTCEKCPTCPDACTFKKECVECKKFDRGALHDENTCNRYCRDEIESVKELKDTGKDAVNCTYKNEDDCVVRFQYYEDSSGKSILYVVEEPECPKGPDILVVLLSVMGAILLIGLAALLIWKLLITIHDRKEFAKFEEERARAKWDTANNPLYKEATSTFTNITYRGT
Experimental: αvβ3 was then tested for its ability to negate the anti-proliferative effect of Tum-4 on melanoma cells. Tumstatin and Tum-4 were pre-incubated for 30 minutes at room temperature with αvβ3 integrin protein, then added to WM-164 cells grown in 96-well plates. After 48 hours of incubation, the increase in cell number was determined by methylene blue staining. Tumstatin had no effect on WM-164 cells.

ERK = ERK activation (phospho-ERK western blot) in HUVEC; format: cell-based, human; settings: 20 μg/ml
Experimental: In order to further understand the molecular mechanisms involved in Canstatin's anti-proliferative and anti-migratory activities, the effect of Canstatin on ERK (Extracellular signal-Regulated Kinase) activation induced by 20% fetal bovine serum and endothelial mitogens was assessed. HUVEC cells were cultured overnight in McCoy's medium supplemented with 20% FBS, 1% penicillin/streptomycin, 100 μg/ml heparin and 50 μg/ml endothelial mitogen (Biomedical Technologies, Inc., Cambridge, Mass., USA). The following day, cells were washed and grown for 4 hours in low serum medium (McCoy's medium supplemented with 1% penicillin/streptomycin, 100 μg/ml heparin and 5% FBS). After 4 hours, the medium was replaced with fresh low serum medium with or without 20 μg/ml Canstatin. One hour later the serum concentration was adjusted to 20% and endothelial mitogen was added to a final concentration of 50 μg/ml. At 0, 5, 10, 25, and 40 minutes, the cells were washed with PBS and lysed with passive lysis mix (Promega, Madison, Wis., USA) plus leupeptin, PMSF, NaF, Na3VO4, β-glycerophosphate, and sodium pyrophosphate. Lysates were quantified for protein concentration and separated on 12% SDS-PAGE gels. Western blots of phospho-ERK were made for serum-treated and serum+Canstatin-treated HUVECs using anti-phospho-ERK antibodies (New England Biolabs, Beverly, Mass., USA). […]

[1] = test system: CD31-positive tumor vasculature; test: CD31 immunohistochemistry of xenograft tumors; settings: mouse, in vivo
Experimental: Mice from the tumor studies were sacrificed after 10-20 days of treatment. Tumours were excised and fixed in 4% paraformaldehyde. Tissues were paraffin embedded and 3 μm sections were cut and mounted on glass slides. Sections were deparaffinized, rehydrated and treated with […] protease XXIV (SIGMA Chemical Co., St. Louis, Mo., USA) at 37° C. for 5 minutes. Digestion was stopped with 100% ethanol and sections were air dried and blocked with 10% rabbit serum. […]
CD31 immunostaining was used to determine the intra-tumoral microvessel density (MVD) in frozen histological sections of the PC-3 tumor xenografts, using a rat anti-mouse […] monoclonal antibody (PharMingen, San Diego, Calif., USA) with a standard streptavidin-biotin-peroxidase detection system (Vectastain ABC Elite Kit, Vector Labs, Burlingame, Calif., USA). […] MVD was assessed by scanning the tumor at low power magnification, then identifying three areas at the tumor periphery which contained the maximum number of discrete microvessels, and then counting individual microvessels on a 40× field. The mean microvessel density was compared among treatment groups and analyzed using the Student's t-test.

HEK 293 cells = test: Proliferation of control cells, 3H-thymidine incorporation; format: cell-based, human; settings: Canstatin doses up to 40 mg/ml
Experimental: Bovine calf […] endothelial (C-PAE) cells were grown to confluence in DMEM with 10% fetal calf serum (FCS) and kept contact inhibited for 48 hours. Cells were harvested by trypsinization (Life Technologies/Gibco BRL, Gaithersberg, Md., USA) at 37° C. for 5 minutes. A suspension of 12,500 cells in DMEM with 0.5% FCS was added to each well of a 24-well plate coated with 10 μg/ml fibronectin. The cells were incubated for 24 hours at 37° C. C. with 5% CO2 and 95% humidity. Medium was removed, and replaced with DMEM containing 0.5% FCS (unstimulated) or 10% FCS (stimulated and treated cells). 786-O, PC-3 and HEK 293 cells served as controls and were also grown to confluency, trypsinized and plated in the same manner. Cells were treated with concentrations of Canstatin or endostatin ranging from 0.025 to 40 mg/ml in triplicate. In thymidine incorporation experiments, all wells received […] of ^3H-thymidine at the time of treatment. After 24 hours, medium was removed and the wells were washed 3 times with PBS. Radioactivity was extracted with 1N NaOH and added to a scintillation vial containing 4 ml of ScintiVerse II (Fisher Scientific, Pittsburgh, Pa., USA) solution. Thymidine incorporation was measured using a scintillation counter.

| Molecule | recovery of anti-proliferative effect by soluble αvβ3 protein (αvβ3 integrin protein) [%] | effect on ERK activation (ERK) | CD31 staining of tumor vasculature, treated vs control [1] | effect on proliferation (HEK 293 cells) |
| --- | --- | --- | --- | --- |
| Tum-4: residues 181 to 244 of Tumstatin (SEQ ID NO:25) (protein, Tum-4 (amino acids 181-244 of SEQ ID NO10)) EFRASPFLECHGRGTCNYYSNSYSFWLASLNPERMFRKPIPSTVKAGELEKIISRCQVCMKKRH | 76.7 |  |  |  |
| Canstatin: NC1 domain of the α2 chain of Type IV collagen (SEQ ID NO:6) (protein, listed as Homo sapiens) VSIGYLLVKHSQTDQEPMCPVGMNKLWSGYSLLYFEGQEKAHNQDLGLAGSCLARFSTMPFLYCNPGDVCYYASRNDKSYWLSTTAPLPMMPVAEDEIKPYISRCSVCEAPAIAIAVHSQDVSIPHCPAGWRSLWIGYSFLMHTAAGDEGGGQSLVSPGSCLEDFRATPFIECNGGRGTCHYYANKYSFWLTTIPEQSFQGSPSADTLKAGLIRTHISRCQVCMKNL |  | did not alter early activation of ERK | decrease in CD31-positive vasculature | No significant effect |
